Data on one molecule can be found in patent US20110064740A1.

The target in assay [1] is Cell-surface full length amyloid precursor protein (APP) on HEK293T cells transfected with wild type APP DNA (UniProt P05067). Nature of the assay: FMAT ABI8200, HEK293T cells transfected with wild type APP, mock subtracted; Experiment 2.
Assay [2] has the same target. Put plainly: FMAT ABI8200, HEK293T cells transfected with wild type APP, mock subtracted; Experiment 1.

Sequence of Cell-surface full length amyloid precursor protein (APP) on HEK293T cells transfected with wild type APP DNA (P05067 18-770): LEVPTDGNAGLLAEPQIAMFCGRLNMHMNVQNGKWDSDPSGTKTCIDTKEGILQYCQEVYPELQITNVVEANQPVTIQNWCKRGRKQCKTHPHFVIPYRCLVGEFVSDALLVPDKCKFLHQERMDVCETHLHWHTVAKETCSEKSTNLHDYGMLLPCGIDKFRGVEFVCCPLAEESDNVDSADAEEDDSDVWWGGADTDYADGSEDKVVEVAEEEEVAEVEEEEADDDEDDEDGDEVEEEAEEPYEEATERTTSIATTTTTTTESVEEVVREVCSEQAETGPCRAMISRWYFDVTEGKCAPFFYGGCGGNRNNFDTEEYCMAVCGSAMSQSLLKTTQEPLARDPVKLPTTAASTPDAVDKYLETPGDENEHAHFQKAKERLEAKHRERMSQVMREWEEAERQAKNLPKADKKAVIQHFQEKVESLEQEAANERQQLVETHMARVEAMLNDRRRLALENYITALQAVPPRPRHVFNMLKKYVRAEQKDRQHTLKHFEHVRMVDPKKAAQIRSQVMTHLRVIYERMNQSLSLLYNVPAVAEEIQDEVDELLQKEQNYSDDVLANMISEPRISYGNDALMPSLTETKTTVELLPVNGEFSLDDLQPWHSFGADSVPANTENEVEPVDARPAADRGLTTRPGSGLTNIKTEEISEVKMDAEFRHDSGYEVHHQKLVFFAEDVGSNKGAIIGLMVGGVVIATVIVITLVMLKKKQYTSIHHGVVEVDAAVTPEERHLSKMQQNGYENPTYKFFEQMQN

B1: Mouse monoclonal antibody 2E7 (antibody, mouse IgG2a, V domains shown)
VH: EVKLVESGGGLVQPGGSLKLSCAVSGFTFSDNGMAWVRQAPRKGPEWIAFISNLAYSIDYADTVTGRFTISRDNAKNTLYLEMSSLRSEDTAMYYCVSGTWFAYWGQGTLVTVSA
VL: DVVLTQTPLSLPVSLGDQASISCRVSQSLLHSNGYTYLHWYLQKPGQSPKLLIYKVSNRFSGVPDRFSGSGSGTDFTLKISRVEAEDLGVYFCSQTRHVPYTFGGGTKLEIK
As for B1, the % of LN27 binding came to 2.2% in assay [1] and 9.9% in assay [2].
